B1: minF1; a variant is named by its letters at N, in order (parent)
chain: GAGACCGCAACTGAAAAGTTGTTNNNNAANNNNNGGNTNAATTTCTGCACGTAGAAGCAAAAGGC
B2: minF1; a variant is named by its letters at N, in order (parent)
chain: GAGACCGCAACTGAAAAGTTGTTANNNNAANGNNNGGTTGAATTTCTGCACGTAGAAGCAAAAGGC

Variants of B1 are the subject of one series. Kind of series: fraction ligated after 30 min (ligated reads / total reads); higher = more ligase activity. Conditions: with F1*subA RNA substrate (template-directed ligation), 42 °C. The essentials:
(§1)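 Templates from an oligo pool encoding minimized ligase ribozyme variants were amplified by PCR, transcribed with T7, and purified on gels. Gel electrophoresis separated ligated from unligated RNAs, which were then reverse transcribed using barcoded primers and sequenced on a MiSeq, keeping core bases with quality ≥30. For each variant, fraction ligated equals ligated reads divided by total reads.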
For the variant GAGACCGCAACTGAAAAGTTGTATCAGAAATGGAGGGTTGATTTCTGCACGTAGAAGCAAAAGGC [TCAGATGGAGT T23A A40G], the fraction ligated stood at 0.0153.
With GAGACCGCAACTGAAAAGTTGTTATAGAAATGGTGGGTTGATTTCTGCACGTAGAAGCAAAAGGC [ATAGATGGTGT A40G], the fraction ligated was found to be 0.00815.
Same read-out and setting: to GAGACCGCAACTGAAAAGTTGTTATGAAAGGATGGGTTGAATTTCTGCACGTAGAAGCAAAAGGC [ATGAGGATGTG] belongs 0.00387.
As to GAGACCGCAACTGAAAAGTTGTTATCAGAAATTGGGTTGAATTTCTGCACGTAGAAGCAAAAGGC [ATCAAATTGTG A28G], the fraction ligated came out at 0.00273.
GAGACCGCAACTGAAAAGTTGTTATCAGAAATATGGGTTGATTTCTGCACGTAGAAGCAAAAGGC [ATCAAATATGT A28G A40G]: the fraction ligated was 0.00354.
Take GAGACCGCAACTGAAAAGTTGTTATAAAATGGATGGGTTGATTTCTGCACGTAGAAGCAAAAGGC [ATAATGGATGT A40G]: the fraction ligated stood at 0.0127.
As to GAGACCGCAACTGAAAAGTTGTTTCAGAAATGGGGGTTGAATTTCTGCACGTAGAAGCAAAAGGC [TCAGATGGGTG], the fraction ligated worked out at 0.00281.
Same read-out and setting: then GAGACCGCAACTGAAAAGTTGTTACAGAAATGGGGGTTGAATTTCTGCACGTAGAAGCAAAAGGC [ACAGATGGGTG], with 0.00695; and GAGACCGCAACTGAAAAGTTGTAAGAAATGGATGGGTTGAATTTCTGCACGTAGAAGCAAAAGGC [AGAAGGATGTG T23A A29T], with 0.00429; and GAGACCGCAACTGAAAAGTTGTTAAGAATGGATGGGTTGAATTTCTGCACGTAGAAGCAAAAGGC [AAGAGGATGTG A29T], with 0.00554.
Regarding GAGACCGCAACTGAAAAGTTGTATCAGAAAGGATGGTTGAATTTCTGCACGTAGAAGCAAAAGGC [TCAGAGGATTG T23A], the fraction ligated amounted to 0.00302.
On the same count and under the same terms, to GAGACCGCAACTGAAAAGTTGTTTCAGAAATGATGGGTTAATTTCTGCACGTAGAAGCAAAAGGC [TCAGATGATGT] belongs 0.00279.
With GAGACCGCAACTGAAAAGTTGTATAGAAATGGATGGTTGAATTTCTGCACGTAGAAGCAAAAGGC [TAGATGGATTG T23A], the fraction ligated worked out at 0.00337.
On the same count and under the same terms, then GAGACCGCAACTGAAAAGTTGTTCGAAATGGATGGGTTGAATTTCTGCACGTAGAAGCAAAAGGC [CGAAGGATGTG A29T], with 0.0086; and GAGACCGCAACTGAAAAGTTGTTTCAGAAATGGATGGTTGATTTCTGCACGTAGAAGCAAAAGGC [TCAGATGGAGT G35T A40G], with 0.0226; and GAGACCGCAACTGAAAAGTTGTTAAGAAATGGATGGGTTAATTTCTGCACGTAGAAGCAAAAGGC [AAGATGGATGT], with 0.0029.
Regarding GAGACCGCAACTGAAAAGTTGTTTCAGAATGGAGGGTTGAATTTCTGCACGTAGAAGCAAAAGGC [TCAGTGGAGTG], the fraction ligated turned out to be 0.00343.
The same measure, in the same setting: to GAGACCGCAACTGAAAAGTTGTATCGAAAGGATGGGTTGAATTTCTGCACGTAGAAGCAAAAGGC [TCGAGGATGTG T23A] belongs 0.
Still for that read-out and setting: then GAGACCGCAACTGAAAAGTTGTTATGAAATGGTGGGTTGAATTTCTGCACGTAGAAGCAAAAGGC [ATGATGGTGTG], with 0.00304; and GAGACCGCAACTGAAAAGTTGTTATCGAAATGTGGGTTGAATTTCTGCACGTAGAAGCAAAAGGC [ATCGATGTGTG], with 0.00321.
As to GAGACCGCAACTGAAAAGTTGTTACGAAAGGATGGGTTGAATTTCTGCACGTAGAAGCAAAAGGC [ACGAGGATGTG], the fraction ligated was found to be 0.00409.
Consider GAGACCGCAACTGAAAAGTTGTTTCAGAAATGGTGGGTTAATTTCTGCACGTAGAAGCAAAAGGC [TCAGATGGTGT], for which the fraction ligated was determined as 0.00178.
Turning to GAGACCGCAACTGAAAAGTTGTTTCAGAAATGTGGGTTGAATTTCTGCACGTAGAAGCAAAAGGC [TCAGATGTGTG], the fraction ligated came to 0.00186.
For the variant GAGACCGCAACTGAAAAGTTGTATCAGAAGGATGGGTTGAATTTCTGCACGTAGAAGCAAAAGGC [TCAGGGATGTG T23A], the fraction ligated turned out to be 0.00448.
Still for that read-out and setting: to GAGACCGCAACTGAAAAGTTGTTACAGAAATGGTGGGTTGATTTCTGCACGTAGAAGCAAAAGGC [ACAGATGGTGT A40G] belongs 0.00805.
Still for that read-out and setting: to GAGACCGCAACTGAAAAGTTGTTATCAATGGATGGGTTGAATTTCTGCACGTAGAAGCAAAAGGC [ATCAGGATGTG A29T] belongs 0.0416; to GAGACCGCAACTGAAAAGTTGTTATCGAAATGATGGTTGAATTTCTGCACGTAGAAGCAAAAGGC [ATCGATGATTG], 0.00246; to GAGACCGCAACTGAAAAGTTGTTATCAGAATGGGGGTTGAATTTCTGCACGTAGAAGCAAAAGGC [ATCAATGGGTG A28G], 0.00605.
For GAGACCGCAACTGAAAAGTTGTTATCAGAAATGGTGGGTTATTTCTGCACGTAGAAGCAAAAGGC [ATCAAATGGGT A28G G35T T38G A40T], the fraction ligated is 0.00125.
On to GAGACCGCAACTGAAAAGTTGTTACAAAATGGATGGGTTGATTTCTGCACGTAGAAGCAAAAGGC [ACAATGGATGT A40G], for which the fraction ligated was determined as 0.0105.
The same measure, in the same setting: then GAGACCGCAACTGAAAAGTTGTTATCAAATGGTGGGTTGAATTTCTGCACGTAGAAGCAAAAGGC [ATCATGGTGTG], with 0.00812; and GAGACCGCAACTGAAAAGTTGTTCAGAAATGATGGGTTGAATTTCTGCACGTAGAAGCAAAAGGC [CAGATGATGTG], with 0.00402.
As for GAGACCGCAACTGAAAAGTTGTTACAGAAAGGTGGGTTGAATTTCTGCACGTAGAAGCAAAAGGC [ACAGAGGTGTG], the fraction ligated turned out to be 0.00336.
Still for that read-out and setting: to GAGACCGCAACTGAAAAGTTGTTACAAAAGGATGGGTTGAATTTCTGCACGTAGAAGCAAAAGGC [ACAAGGATGTG] belongs 0.00477.
Consider GAGACCGCAACTGAAAAGTTGTTATCAAAAGGATGGTTGAATTTCTGCACGTAGAAGCAAAAGGC [ATCAAGGATTG], for which the fraction ligated was 0.00347.
GAGACCGCAACTGAAAAGTTGTTATAGAATGGAGGGTTGAATTTCTGCACGTAGAAGCAAAAGGC [ATAGTGGAGTG]: the fraction ligated was found to be 0.
With GAGACCGCAACTGAAAAGTTGTTATCGAAATGGTGGGTTAATTTCTGCACGTAGAAGCAAAAGGC [ATCGATGGTGT], the fraction ligated was 0.00463.
For the variant GAGACCGCAACTGAAAAGTTGTATCAAAATGGATGGTTGAATTTCTGCACGTAGAAGCAAAAGGC [TCAATGGATTG T23A], the fraction ligated was found to be 0.0162.
On the same count and under the same terms, to GAGACCGCAACTGAAAAGTTGTTACAGAAAGATGGGTTGAATTTCTGCACGTAGAAGCAAAAGGC [ACAGAGATGTG] belongs 0.0018.

A further series covers variants of B2. Described as above. Conditions: with F1*subA RNA substrate (template-directed ligation), 42 °C. The essentials:
as §1
On to GAGACCGCAACTGAAAAGTTGTACAGAAATGGATGGGTTGAATTTCTGCACGTAGAAGCAAAAGGC [AGAAGATG T23A A24C A30T], for which the fraction ligated stood at 0.00911.
Still for that read-out and setting: then GAGACCGCAACTGAAAAGTTGTATCGAAATGGATGGGTTGAATTTCTGCACGTAGAAGCAAAAGGC [CGAAGATG T23A A24T A30T], with 0.0868; and GAGACCGCAACTGAAAAGTTGTATAGAAATGGATGGGTTGAATTTCTGCACGTAGAAGCAAAAGGC [AGAAGATG T23A A24T A30T], with 0.00339.

Values taken from the supplement of paper PMC6755084.
